Source: paper PMC3227427

What was measured:
[1] = target: T1, Pyrococcus furiosus (Pfu) RNase P protein RPP30 (Pyrococcus furiosus); assay: ITC; Pop5 (148 uM) titrated into RPP30 (14.8 uM); 55°C; no salt or 150 mM NaCl; smaller injections, higher Wiseman c value; two-site model
T1 sequence (Q8TZS0 1-214, looked up): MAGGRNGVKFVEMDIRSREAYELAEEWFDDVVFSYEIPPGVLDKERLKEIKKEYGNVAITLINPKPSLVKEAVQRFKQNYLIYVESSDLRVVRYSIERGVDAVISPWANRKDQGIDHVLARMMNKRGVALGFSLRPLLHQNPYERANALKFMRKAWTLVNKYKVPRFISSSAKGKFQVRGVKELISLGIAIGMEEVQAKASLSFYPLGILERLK

[2] = target: T1, Pyrococcus furiosus (Pfu) RNase P protein RPP30 (Pyrococcus furiosus); assay: ITC; Pop5 (87.2 uM) titrated into RPP30 (9.89 uM); 55°C; 10 mM sodium acetate pH 5, no salt; one-site model; apparent
[3] = target: T1, Pyrococcus furiosus (Pfu) RNase P protein RPP30 (Pyrococcus furiosus); assay: ITC; Pop5 (87.2 uM) titrated into RPP30 (4.95 uM); 55°C; 10 mM sodium acetate pH 5 with 130 mM KCl; one-site model; apparent

stoichiometry N [1]: 1 | Kd [2]: 124 nM | stoichiometry N [2]: 1 | Kd [3]: 3.5 nM | stoichiometry N [3]: 1
B1: Pyrococcus furiosus (Pfu) RNase P protein Pop5, Cys72Ser variant (natural protein)
chain: MSERPKTLPPTLRDKKRYIAFKVISENQFNKDEIKEAIWNACLRTLGELGTAKAKPWLIKFDETTQTGIIRSDRNHVYDVIFSLTLVSDINGNKAIIKVLGVSGTIKRLKRKFLSQFGWR
